Measured values: patent publication US6258776A, “Calcium-regulated kinase” (priority 1997, dated 2001)
“Also recorded” adds a separate entry of the source.

Columns and labels:
Ndr = details: transphosphorylation; cited from earlier work
HA-Ndr WT [1] = experiment: A23187 treatment of COS-1 cells co-expressing HA-Ndr WT and S100B, Ndr kinase activity; format: cell-based; details: 20 μM A23187
Description: In order to provide direct evidence that Ca^2+ /S100B regulates Ndr activity in vivo, COS-1 cells are co-transfected with expression constructs for Ndr and S100B (pECE-HA-Ndr, which expresses haemaglutinin epitope-tagged Ndr from an SV40 promoter, and pECE-S100B). Two Ndr constructs are used, expressing either wild-type Ndr (Ndr WT) or Ndr lacking the previously identified S100B binding domain (Ndr Δ65-81).Then, the cells are treated for various lengths of time with 20 μM A23187, a calcium ionophore.

GST-Ndr [2] = biological target: T1, GST-Ndr (Homo sapiens, UniProt Q15208); experiment: Ndr peptide substrate phosphorylation assay; format: biochemical; details: 0.5 mg/ml peptide, 3 h at 30° C., KKRNRRLSVA = 100%
T1 construct: made in house
Description: When incubated in vitro with Mg-ATP, Ndr incorpora tes phosphate by an intramolecular autophosphorylation mechanism (Millward, T. A., et al., (1995) Proc. Natl. Acad. Sci. USA 92, 5022-5026). […] To develop a convenient in vitro kinase assay for Ndr, an assembled library of synthetic peptides is screened for potential Ndr substrates. 5 μg GST-Ndr WT or GST-Ndr K118A (Miliward, T. A., et al., (1995) Proc. Natl. Acad. Sci. USA 92, 5022-5026), immobilised on 2.5 μl glutathione-agarose beads (Sigma), is assayed in a 25 μl reaction containing 50 mM Tris-HCl pH 7.5, […] MgCl2, 1 mM dithiothreitol, 100 μM [γ-^32 P] ATP (0.3 μCi/μl) and 0.5 mg/ml peptide. After incubation at 3 h at 30° C. (during which time phosphate incorporation into peptides is linear), aliquots of the reaction are spotted onto 2 cm^2 squares of P81 phosphocellulose paper (Whatman), which are then washed 5×5 min in 1% phosphoric acid and once in acetone, before counting in a liquid scintillation counter.
Several peptides are identified which could serve as Ndr substrates (Table 1; SEQ. ID. No. 1 to 31). By comparing the efficiency of phosphorylation of the various peptides, several conclusions regarding the substrate specificity of Ndr can be drawn. […] Secondly, most of the peptides which are detectably phosphorylated contained a basic amino acid at position -6 relative to the phosphoaccepting serine. […] A basic amino acid at -6 is however not sufficient for substrate recognition, since this peptide is also not phosphorylated. Thirdly, a basic residue at -5 appeared to be also important, although not essential, for efficient phosphorylation by Ndr. Basic amino acids at -3, -2 and -7 are also important. Proline at +1 appears to be inhibitory, whilst the presence of amino acids carboxy-terminal to the phosphoacceptor is important, removal of the residue at +2 reducing activity. The best Ndr substrate from these series of peptides is ([…], SEQ. ID. No. 1), and this peptide is used for Ndr kinase assays in subsequent experiments.

HA-Ndr WT [3] = details: 10 nM, 1 h
Description: COS-1 cells expressing HA-Ndr WT (as in Example 5) are treated either with solvent alone (Control) or with a panel of cell permeable protein phosphatase inhibitors. The cells are then extracted, HA-Ndr is immunoprecipitated with the anti-HA mAb 12CA5, and the kinase activity of Ndr measured as before, using the peptide substrate.

PP2A = details: 10 nM calyculin A; cited from earlier work
[4] = tested on: protein phosphatase 1 (PP1); details: 10 nM calyculin A; cited from earlier work
[5] = immune complex kinase assay, basal kinase activity of Ndr mutants; format: biochemical; details: compared with wild-type Ndr
Description: In immune complex kinase assays and autophosphorylation assays (see below), COS-1 cells are transfected as described above or with pECE-Ndr-K118A. After 72 h, cells are washed with ice-cold PBS and lysed in lysis buffer (20 mM Tris-HCl pH 8.0, 150 mM NaCl, 1% (v/v) NP-40, 10% (v/v) glycerol, 5 mM EDTA, 0.5 mM EGTA, 0.5 mM phenylmethyl-sulfonyl fluoride, 4 μM leupeptin, 1 mM benzamidine, 1 μM microcystin and 1 mM Na3 VO4). Lysates are centrifuged at 14,000 g for 20 min. Duplicate aliquots of supernatant (250 μg, 2.5 mg/ml) are incubated for 2 h at 0° C. with 10 μg/ml Ab^1-465. Immune complexes are precipitated by addition of 2 μl protein A-Sepharose (Pharmacia) and mixing for 1 h. The beads are then washed twice with lysis buffer, once with lysis buffer containing 1 M NaCl, with lysis buffer again, and finally twice with 20 mM Tris-HCl pH 7.5. Beads are resuspended in 30 μl buffer containing 20 mM Tris-HCl pH 7.5, 10 mM MgCl2, 100 μM CaCl2, 1 mM dithiothreitol, 100 μM [γ-^32 P] ATP (0.5 μCi/μls), 1 mM Ndr substrate peptide ([…], SEQ. ID. No. 1), 1 μM cAMP-dependent protein kinase inhibitor peptide (PKI; purchased from Bachem, Bubendorf, Swit zerland), 4 μM leupeptin, 1 mM benzamidine, 1 μM microcystin and, in some assays, 20 μM bovine S100B. After 60 min at 30° C., phosphate incorporation into the peptide is quantitated as described above. […]

S100B = experiment: co-immunoprecipitation of Ndr with anti-S100B from COS-1 cells; format: cell-based; details: co-expressed with S100B
Description: For expression of Ndr and S100B in mammalian cells, the cDNAs encoding Ndr and S100B are cloned into the pECE vector, which directs expression driven by an SV40-derived promoter. In addition, an amino-terminal truncation mutant of Ndr lacking the first 84 amino acids (1-84) is used.
The plasmids encoding Ndr and S100B are transfected into COS-1 cells, either alone or in combination. Seventy-two hours later, cells extracts are prepared and immunoprecipitated with an antibody recognising S100B. In an anti-Ndr western blot of the cell extracts, it is shown that Ndr is expressed an expected.

calmodulin (CaM-agarose) = experiment: binding of Ndr and deletion mutants from COS-1 cell lysates to CaM-agarose; details: lysates supplemented with Ca^2+
Source text: In addition, the ability of untagged Ndr to interact with CaM is investigated. COS-1 cells are transfected with pECE or with derivative plasmids encoding wild-type Ndr, NdrΔ65-81 or NdrΔ1-84 (Millward, T. A., et al., (1995) Proc. Natl. Acad. Sci. USA 92, 5022-5026) using DEAE-dextran (Seed, B. and Aruffo, A. (1987) Proc. Natl. Acad. Sci. USA 84, 3365-3369). Seventy-two hours after transfection, cells are scraped into ice-cold phosphate-buffered saline (PBS), spun down, and disrupted in buffer A (TBS containing 1 mM dithiothreitol, 0.5 mM phenylmethylsulfonyl fluoride, 4 μM leupeptin and 1 mM benzamidine) using a tight-fitting all-glass dounce homogenizer. Extracts (20 μg) are adjusted to 1 mg/ml, supplemented with either 1 mM CaCl2 or 1 mM EGTA and then mixed for 2 h with 6 μl CaM-agarose. After washing three times with 1 ml of the corresponding binding buffer, the beads are eluted with buffer A containing 5 mM EGTA. Equal portions of the unbound and EGTA-eluted fractions are analysed by immunoblofting with anti-Ndr antibodies.
Samples are separated by SDS-PAGE and electroblotted to Immobilon-P membranes (Millipore). Blots are incubated in blocking buffer (50 mM Tris-HCl pH 7.5, 150 mM NaCl, 1% (v/v) Triton X-1 00, 0.5% (v/v) Tween 20, 5% (w/v) skim milk powder) and then probed for 2 h with primary antibodies diluted in the same buffer. Ndr and GST-Ndr are detected with Ab^452-465 at 4 μg/ml (Millward, T. A., et al., Op. Cit.); GST is detected with an anti-GST antiserum (1 :1000 dilution). Bound antibodies are detected using horseradish peroxidase-conjugated donkey anti-rabbit IgG antibodies and ECL substrates (Amersham).
To verify whether this domain of Ndr is indeed responsible for its interaction with CaM, deletion mutants of Ndr are expressed in COS-1 cells and tested for CaM binding as above. […] In lysates supplemented with Ca^2 , deletion of amino acids 65-81 cause a large reduction in CaM binding (to ~10% of the level of wild-type binding) as assessed by western blotting.

GST-Ndr [6] = biological target: T1, GST-Ndr; experiment: GST-Ndr peptide kinase assay with calcium-binding proteins; format: biochemical; details: added together with Ca^2+; 60 min, 30° C.
Description: 1 μg GST-Ndr WT or GST-Ndr K118A, either in solution or immobilised on glutathione-agarose beads, is assayed in a 20 μl reaction containing 20 mM Tris-HCl pH 7.5, 5 mM MgCl2, 1 mM dithiothreitol, 100 μM [γ-^32 P] […] Reactions are supplemented with either 2 mM EGTA or various concentrations of CaCl2. Bovine CaM, bovine S100B (both from Sigma) or recombinant calcium-binding proteins. After incubation at 30° C. for 60 min, aliquots of the reaction are spotted on to P81 phosphocellulose paper and counted as above.
In brief, coding regions are cloned into the PGEMEX expression vector (Promega) and resultant plasmids used to transform E. coli BL-21 LysS cells. After induction, S100 proteins are purified by ammonium sulphate precipitation followed by Ca^2+ -dependent phenyl-Sepharose chromatography.
The proteins are added together with Ca^2+ into GST-N dr peptide kinase assays. The proteins tested comprised S100A1 (S100α), S100A2 (S100L), S100A4 (CAPL), S100A6 (calcyclin) and S100B (S100β); α-parvalbumin is included as a negative control.
In order to estimate the binding affinity of S100B for Ndr, kinase assays are performed in which GST-Ndr is mixed with various concentrations of purified bovine S100B homodimer, in the presence or absence of calcium.
To determine whether activation of Ndr by S100B occurs at physiological Ca^2+ concentrations, Ndr activity is assayed with or without added S100B over a range of Ca^2+ concentrations.

T1 sequence (Q15208 whole entry): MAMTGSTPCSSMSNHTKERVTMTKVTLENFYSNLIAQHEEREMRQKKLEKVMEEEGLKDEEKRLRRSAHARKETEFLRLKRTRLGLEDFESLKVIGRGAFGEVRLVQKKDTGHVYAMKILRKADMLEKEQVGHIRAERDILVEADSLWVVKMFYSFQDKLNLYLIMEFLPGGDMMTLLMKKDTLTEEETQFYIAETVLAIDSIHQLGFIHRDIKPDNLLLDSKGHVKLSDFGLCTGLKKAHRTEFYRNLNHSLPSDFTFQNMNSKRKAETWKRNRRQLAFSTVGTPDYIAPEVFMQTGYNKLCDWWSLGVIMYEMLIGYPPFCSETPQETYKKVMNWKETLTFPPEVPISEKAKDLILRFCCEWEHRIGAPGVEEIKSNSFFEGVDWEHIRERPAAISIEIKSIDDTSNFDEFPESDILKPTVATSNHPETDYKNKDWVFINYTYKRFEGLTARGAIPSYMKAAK

myelin basic protein
substrate of Ndr (Ndr): not substrates of Ndr

casein
substrate of Ndr (Ndr): not substrates of Ndr

CNc1ccc2oc(C[C@H]3O[C@@]4(CC[C@H]3C)O[C@H]([C@H](C)C(=O)c3ccc[nH]3)[C@H](C)C[C@H]4C)nc2c1C(=O)O [A23187]
activation of HA-Ndr (HA-Ndr WT [1]): activation of HA-Ndr WT

KKLNRRLSVA [SEQ. ID. No. 3]
Relative Ndr Activity (GST-Ndr [2]): 18%

KKRNRRLSVA [SEQ. ID. No. 1]
Relative Ndr Activity (GST-Ndr [2]): 100%

KKRNARLSVA [SEQ. ID. No. 4]
Relative Ndr Activity (GST-Ndr [2]): 15%

KKRNRTLSPA [SEQ. ID. No. 10]
Relative Ndr Activity (GST-Ndr [2]): 0%

COC[C@@H]([C@H](O)[C@H](O)C(=O)NCC[C@H](C)c1nc(/C=C/C[C@@H]2O[C@]3(C[C@@H](O)[C@@H]2C)O[C@H]([C@H](C[C@H](O)[C@H](C)[C@H](O)[C@H](C)/C=C(C)/C(C)=C/C=C/C(C)=C\C#N)OC)[C@H](OP(=O)(O)O)C3(C)C)co1)N(C)C [calyculin A]
activation of Ndr (HA-Ndr WT [3]): ~ 4 fold | inhibition of PP2A (PP2A): ~ 50% | inhibition of PP1 [4]: ~ 50%

KKRNRTLSVA [SEQ. ID. No. 6]
Relative Ndr Activity (GST-Ndr [2]): 60%

KKRNRALSVA [SEQ. ID. No. 5]
Relative Ndr Activity (GST-Ndr [2]): 30%

KKRNRTLTV [SEQ. ID. No. 9]
Relative Ndr Activity (GST-Ndr [2]): 0%

AARNRTLSVA [SEQ. ID. No. 7]
Relative Ndr Activity (GST-Ndr [2]): 0%

KKRNRTLSV [SEQ. ID. No. 8]
Relative Ndr Activity (GST-Ndr [2]): 24%

Δ1-84: Ndr deletion mutant lacking the complete amino terminal domain
basal kinase activity [5]: only slightly reduced; also recorded: reduced basal kinase activity | co-immunoprecipitation with anti-S100B (S100B): abolishes co-immunoprecipitation | binding to CaM-agarose (calmodulin (CaM-agarose)): no longer detectable

S100A1: S100 family protein, phylogenetically the closest known relative of S100B
increase in Ndr kinase activity (GST-Ndr [6]): 2-3 fold

KARNRRLSVA (LARNRRLSVA) [SEQ. ID. No. 2]
Relative Ndr Activity (GST-Ndr [2]): 39%
